Consider 6 substances from paper PMC4371794.

The test addresses R499D-quad-PDE4D5. The test is described as follows: yeast two-hybrid, quantitative β-galactosidase assay. The settings on record: parent: est. 18, read off a plot.

Regarding “PDE4D5 (wild-type, full-length; "long") (from UniProt Q08499-6) binder:N174A; target:R173A; target:N174A; target:N175A; target:E228A; target:T229A; target:L230A; target:L306A; target:M307A; target:H308A; target:K323A; target:T324A; target:E325A; target:R499D”, the response (bar labelled DD1 sequence RAN) came out at 1.9 arbitrary.
Regarding “PDE4D5 (wild-type, full-length; "long") (from UniProt Q08499-6) binder:R173A; target:R173A; target:N174A; target:N175A; target:E228A; target:T229A; target:L230A; target:L306A; target:M307A; target:H308A; target:K323A; target:T324A; target:E325A; target:R499D”, where the note is “bar labelled DD1 sequence ANN”, the response was 5.4 arbitrary.
Regarding “PDE4D5 (wild-type, full-length; "long") (from UniProt Q08499-6) binder:N174A; binder:N175A; target:R173A; target:N174A; target:N175A; target:E228A; target:T229A; target:L230A; target:L306A; target:M307A; target:H308A; target:K323A; target:T324A; target:E325A; target:R499D”, the response (bar labelled DD1 sequence RAA) was found to be 7.1 arbitrary.
Regarding “PDE4D5 (wild-type, full-length; "long") (from UniProt Q08499-6) binder:R173A; binder:N174A; binder:N175A; target:R173A; target:N174A; target:N175A; target:E228A; target:T229A; target:L230A; target:L306A; target:M307A; target:H308A; target:K323A; target:T324A; target:E325A; target:R499D”, the response (bar labelled DD1 sequence AAA) was found to be 1.1 arbitrary.
Consider “PDE4D5 (wild-type, full-length; "long") (from UniProt Q08499-6) binder:N175A; target:R173A; target:N174A; target:N175A; target:E228A; target:T229A; target:L230A; target:L306A; target:M307A; target:H308A; target:K323A; target:T324A; target:E325A; target:R499D”, for which, for the setting “bar labelled DD1 sequence RNA”, the response stood at 5.1 arbitrary.
Take “PDE4D5 (wild-type, full-length; "long") (from UniProt Q08499-6) binder:R173A; binder:N175A; target:R173A; target:N174A; target:N175A; target:E228A; target:T229A; target:L230A; target:L306A; target:M307A; target:H308A; target:K323A; target:T324A; target:E325A; target:R499D”: the response (bar labelled DD1 sequence ANA) came to 0.9 arbitrary.
